Where two headings read alike, the source gives them in different places.
Tests used:
Assay in all cases: cell-based or functional assay
GPCR73a receptor (human) [1] = molecular target: GPCR73a receptor (human) (UniProt Q8TCW9)
[2] = molecular target: GPCR73b receptor (Homo sapiens (Human)) (UniProt Q8NFJ6)
[3] = molecular target: PROK2 receptor on Wky12-22 cells (rat aortic smooth muscle cells) (rat)
GPCR73a receptor (human) [4] = molecular target: GPCR73a receptor (human) (UniProt Q8TCW9); remark: listed apart in the source
[5] = molecular target: GPCR73b receptor (Homo sapiens (Human)) (UniProt Q8NFJ6); remark: listed apart in the source

Sequence of GPCR73a receptor (human) (Q8TCW9 whole entry): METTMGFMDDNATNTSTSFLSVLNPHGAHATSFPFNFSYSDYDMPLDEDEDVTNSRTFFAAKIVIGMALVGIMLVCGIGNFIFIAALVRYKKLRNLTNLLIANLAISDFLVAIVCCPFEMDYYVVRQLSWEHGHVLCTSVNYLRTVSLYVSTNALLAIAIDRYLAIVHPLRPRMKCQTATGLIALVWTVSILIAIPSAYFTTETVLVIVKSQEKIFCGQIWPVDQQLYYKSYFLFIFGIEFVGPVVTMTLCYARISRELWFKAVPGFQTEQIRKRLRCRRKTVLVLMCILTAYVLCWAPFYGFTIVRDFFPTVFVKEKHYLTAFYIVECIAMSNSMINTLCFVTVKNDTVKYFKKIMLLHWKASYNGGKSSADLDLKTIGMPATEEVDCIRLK
Sequence of GPCR73b receptor (Homo sapiens (Human)) (Q8NFJ6 whole entry): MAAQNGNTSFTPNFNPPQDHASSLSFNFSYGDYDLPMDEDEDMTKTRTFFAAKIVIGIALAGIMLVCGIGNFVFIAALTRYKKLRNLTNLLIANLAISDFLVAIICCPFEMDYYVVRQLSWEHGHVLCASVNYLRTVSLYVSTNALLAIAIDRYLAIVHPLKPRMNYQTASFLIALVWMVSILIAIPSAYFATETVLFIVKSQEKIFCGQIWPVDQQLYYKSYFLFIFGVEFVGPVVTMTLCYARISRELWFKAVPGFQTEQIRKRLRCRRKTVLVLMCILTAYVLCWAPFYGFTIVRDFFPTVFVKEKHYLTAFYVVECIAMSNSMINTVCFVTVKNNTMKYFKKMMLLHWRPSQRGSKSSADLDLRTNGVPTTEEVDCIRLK

B1: human PROK1 purchased from PeproTech (ligand)
chain: AVITGACERDVQCGAGTCCAISLWLRGLRMCTPLGREGEECHPGSHKVPFFRKRKHHTCPCLPNLLCSRFPDGRYRCSMDLKNINF
- SRE-luciferase fold-induction at 1 ng/ml (fold-induction) (GPCR73a receptor (human) [1]): 0.95
- SRE-luciferase fold-induction at 3.2 ng/ml (fold-induction) (GPCR73a receptor (human) [1]): 1.3
- SRE-luciferase fold-induction at 10 ng/ml (fold-induction) (GPCR73a receptor (human) [1]): 2.6
- SRE-luciferase fold-induction at 32 ng/ml (fold-induction) (GPCR73a receptor (human) [1]): 7.2
- SRE-luciferase fold-induction at 320 ng/ml (fold-induction) (GPCR73a receptor (human) [1]): 20.5
- SRE-luciferase fold-induction at 1000 ng/ml (fold-induction) (GPCR73a receptor (human) [1]): 15
- SRE-luciferase fold-induction at 3.2 ng/ml (fold-induction) [2]: 1.4
- SRE-luciferase fold-induction at 32 ng/ml (fold-induction) [2]: 2.7
- SRE-luciferase fold-induction at 100 ng/ml (fold-induction) [2]: 4.1
- SRE-luciferase fold-induction at 320 ng/ml (fold-induction) [2]: 5.8
- SRE-luciferase fold-induction at 1000 ng/ml (fold-induction) [2]: 6.1
- EC50 of GROα secretion from Wky12-22 cells [3]: 2.94 ng/mL
- SRE-luciferase fold-induction at 1 ng/ml (fold-induction) (GPCR73a receptor (human) [4]): 1.2
- SRE-luciferase fold-induction at 3.2 ng/ml (fold-induction) (GPCR73a receptor (human) [4]): 1.6
- SRE-luciferase fold-induction at 10 ng/ml (fold-induction) (GPCR73a receptor (human) [4]): 2.5
- SRE-luciferase fold-induction at 32 ng/ml (fold-induction) (GPCR73a receptor (human) [4]): 5.8
- SRE-luciferase fold-induction at 100 ng/ml (fold-induction) (GPCR73a receptor (human) [4]): 11.4
- SRE-luciferase fold-induction at 320 ng/ml (fold-induction) (GPCR73a receptor (human) [4]): 24.4
- SRE-luciferase fold-induction at 1000 ng/ml (fold-induction) (GPCR73a receptor (human) [4]): 20
- SRE-luciferase fold-induction at 1 ng/ml (fold-induction) [5]: 1.1
- SRE-luciferase fold-induction at 3.2 ng/ml (fold-induction) [5]: 1.3
- SRE-luciferase fold-induction at 10 ng/ml (fold-induction) [5]: 1.8
- SRE-luciferase fold-induction at 32 ng/ml (fold-induction) [5]: 2.8
- SRE-luciferase fold-induction at 100 ng/ml (fold-induction) [5]: 5.6
- SRE-luciferase fold-induction at 320 ng/ml (fold-induction) [5]: 8.3
- SRE-luciferase fold-induction at 1000 ng/ml (fold-induction) [5]: 8.4

Source: US20080219985A1
